Laboratory results published in article PMC3861454, “Structures of Wnt-Antagonist ZNRF3 and Its Complex with R-Spondin 1 and Implications for Signaling” (PLoS ONE, 2013).

T1: ZNRF3 ectodomain with C-terminal biotin acceptor peptide (C-BAP) tag, biotinylated in vivo (mouse, UniProt Q5SSZ7 53-216, biotin on the biotin acceptor peptide tag (in-vivo biotinylation by BirA))
T1 construct: ZNRF3 ectodomain; also called Biotinylated ZNRF3; source: HEK293-E cells, co-expressed with biotin ligase (BirA); not shown: biotin acceptor peptide (BAP), C-terminal, kept
T1 sequence (looked up): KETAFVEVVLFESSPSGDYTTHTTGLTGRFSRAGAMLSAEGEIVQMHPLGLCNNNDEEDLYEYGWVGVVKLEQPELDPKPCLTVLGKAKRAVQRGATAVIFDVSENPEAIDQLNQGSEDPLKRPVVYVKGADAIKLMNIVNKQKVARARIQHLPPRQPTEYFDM


Key:
RNF43 (Homo sapiens) [1] = target: RNF43 (Homo sapiens) (UniProt Q68DV7); assay: ITC; conditions: cited from earlier work
RNF43 (Homo sapiens) [2] = target: RNF43 (Homo sapiens) (UniProt Q68DV7); assay: ITC; conditions: cited from earlier work; remark: listed apart in the source
[3] = target: T1, ZNRF3 ectodomain with C-terminal biotin …; assay: SPR; IBIS MX96; biotinylated ZNRF3 immobilised on a G-streptavidin sensor chip at different ligand densities; analytes flowed in 25 mM HEPES pH 8.0, 150 mM NaCl, 25 °C; equilibrium dose-response, global fit to a 1:1 binding model; conditions: both partners purified

RSPO1, sequence (Q2MKA7 21-263): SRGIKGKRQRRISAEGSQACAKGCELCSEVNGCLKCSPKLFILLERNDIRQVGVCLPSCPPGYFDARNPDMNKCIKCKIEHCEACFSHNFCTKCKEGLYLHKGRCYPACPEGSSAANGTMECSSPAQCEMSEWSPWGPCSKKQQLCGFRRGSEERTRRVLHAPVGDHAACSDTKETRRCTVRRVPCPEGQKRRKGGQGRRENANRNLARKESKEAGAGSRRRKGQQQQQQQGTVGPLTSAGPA
RNF43 (Homo sapiens), sequence (Q68DV7 24-197): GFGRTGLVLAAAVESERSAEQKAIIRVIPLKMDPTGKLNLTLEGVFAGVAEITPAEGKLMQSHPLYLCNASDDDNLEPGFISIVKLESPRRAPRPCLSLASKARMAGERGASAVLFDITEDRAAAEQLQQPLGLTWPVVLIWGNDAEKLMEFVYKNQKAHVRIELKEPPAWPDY

Row | Kd [3] | Molecule | Kd (RNF43 (Homo sapiens) [1]) | Kd (RNF43 (Homo sapiens) [2])
1 |  | RSPO1 (from UniProt Q2MKA7) | 8500 nM | 750 nM
2 | 1900 nM | R-spondin 1 (RSPO1) furin-like domains Fu1 and Fu2 (domain or fragment, R-spondin 1, fragment consisting of the Fu1 and Fu2 domains; source: HEK 293E (EBNA) cells, purified (Ni-NTA, gel filtration); as described previously [18]) RISAEGSQACAKGCELCSEVNGCLKCSPKLFILLERNDIRQVGVCLPSCPPGYFDARNPDMNKCIKCKIEHCEACFSHNFCTKCKEGLYLHKGRCYPACPEGSSAANGTMECSSPA |  | 
